The text below walks through data of publication PMC8760513, “Mechanistic details of the actinobacterial lyase-catalyzed degradation reaction of 2-hydroxyisobutyryl-CoA” (The Journal of Biological Chemistry, 2021).

To fix the notation:
B1: AcHACL (Actinomycetospora chiangmaiensis DSM 45062) (protein)
chain: MADRQDAERSGAGPARQSVPVASLVAEFLQEHGVDRVFGLQGGHIQPIWDQLARRGVRIVDVRDEGSAVHMAHAHTELTGQTAVAMVTAGPGVTNTVTAVANASVSRIPLLVIGGCPPIPQSNMGPLQDIPHTAILEPITRLARTLRSADQVLREFDEAWARASGDRGEPGPVYLEIPTDVLRRDVPPALQMREHLRAKPKRRPQPHPDDVAAVADLIRAAEKPAIISGRGARTTDGTDLVRLLDASGAAYLDTQESRGLVPDSHPAAVGSARSAVMRDTDLLITVGRQLDYQLGMGSPAVFPHAKVVRIADTASELIDNRRGEVEILAEPGAALAAIADALKDHTPDTSWRDELKAKHRKRAEDYRQALHSTENGADGHIHPNRIFGALDALDGDVLDLGETIMIADGGDLLSFGRLGITKARRYLDAGAFGCLGVATPFAIGAALAYPDRPVVAVTGDGAFGITATEIDTAVRHDAKIVVIVSNNRAWNIERYDQAENYGLVVGTDLADSDYAGVARAFGAHGERVTDPAELEGAIRRALANAPALVDVVTTQDAASPDSGKGLGFVPDYQALTPWNDAEVARRQEGI
B2: AcHACL (Actinomycetospora chiangmaiensis DSM 45062; E493A) (protein)
chain: MADRQDAERSGAGPARQSVPVASLVAEFLQEHGVDRVFGLQGGHIQPIWDQLARRGVRIVDVRDEGSAVHMAHAHTELTGQTAVAMVTAGPGVTNTVTAVANASVSRIPLLVIGGCPPIPQSNMGPLQDIPHTAILEPITRLARTLRSADQVLREFDEAWARASGDRGEPGPVYLEIPTDVLRRDVPPALQMREHLRAKPKRRPQPHPDDVAAVADLIRAAEKPAIISGRGARTTDGTDLVRLLDASGAAYLDTQESRGLVPDSHPAAVGSARSAVMRDTDLLITVGRQLDYQLGMGSPAVFPHAKVVRIADTASELIDNRRGEVEILAEPGAALAAIADALKDHTPDTSWRDELKAKHRKRAEDYRQALHSTENGADGHIHPNRIFGALDALDGDVLDLGETIMIADGGDLLSFGRLGITKARRYLDAGAFGCLGVATPFAIGAALAYPDRPVVAVTGDGAFGITATEIDTAVRHDAKIVVIVSNNRAWNIARYDQAENYGLVVGTDLADSDYAGVARAFGAHGERVTDPAELEGAIRRALANAPALVDVVTTQDAASPDSGKGLGFVPDYQALTPWNDAEVARRQEGI
B3: AcHACL (Actinomycetospora chiangmaiensis DSM 45062; E493Q) (protein)
chain: MADRQDAERSGAGPARQSVPVASLVAEFLQEHGVDRVFGLQGGHIQPIWDQLARRGVRIVDVRDEGSAVHMAHAHTELTGQTAVAMVTAGPGVTNTVTAVANASVSRIPLLVIGGCPPIPQSNMGPLQDIPHTAILEPITRLARTLRSADQVLREFDEAWARASGDRGEPGPVYLEIPTDVLRRDVPPALQMREHLRAKPKRRPQPHPDDVAAVADLIRAAEKPAIISGRGARTTDGTDLVRLLDASGAAYLDTQESRGLVPDSHPAAVGSARSAVMRDTDLLITVGRQLDYQLGMGSPAVFPHAKVVRIADTASELIDNRRGEVEILAEPGAALAAIADALKDHTPDTSWRDELKAKHRKRAEDYRQALHSTENGADGHIHPNRIFGALDALDGDVLDLGETIMIADGGDLLSFGRLGITKARRYLDAGAFGCLGVATPFAIGAALAYPDRPVVAVTGDGAFGITATEIDTAVRHDAKIVVIVSNNRAWNIQRYDQAENYGLVVGTDLADSDYAGVARAFGAHGERVTDPAELEGAIRRALANAPALVDVVTTQDAASPDSGKGLGFVPDYQALTPWNDAEVARRQEGI

Substrate in this data set: CC(C)(O)C(=O)SCCNC(=O)CCNC(=O)[C@H](O)C(C)(C)COP(=O)(O)OP(=O)(O)OC[C@H]1O[C@@H](n2cnc3c(N)ncnc32)[C@H](O)[C@@H]1OP(=O)(O)O
Briefly: purified protein. The conditions noted are these: lyase direction, 37 °C, pH 7.2, 100 mM potassium phosphate, 10% glycerol, 0.2 mM ThDP, 0.2 mM ADP, 5 mM MgCl2, complex structure with dzThDP.
As to B1, the Km (commonly the substrate concentration at which the rate is half of its maximum) was found to be 120 ± 12 µM; the Vmax – broadly, the rate approached at saturating substrate – is 1.2 µmol/min/mg; the kcat – broadly, the number of substrate molecules converted per active site and unit of time at saturation – is 1.3 s⁻¹; the kcat/Km (as a rule, the turnover number divided by the Michaelis constant) is 11000 M⁻¹ s⁻¹.
In the case of B2, the Km is 21 ± 4 µM, the Vmax came to 0.098 µmol/min/mg, the kcat was found to be 0.11 s⁻¹ and the kcat/Km came to 5100 M⁻¹ s⁻¹.
Consider B3, for which the Km stood at 79 ± 7 µM, the Vmax came to 0.025 µmol/min/mg, the kcat is 0.03 s⁻¹ and the kcat/Km turned out to be 340 M⁻¹ s⁻¹.
